Ends that are not written are not given here.
Key:
[1] = molecular target: T1, Bcl-xL/Bak GD domain interaction (Homo sapiens, UniProt Q07817); assay: High through-put screening assay 2: GST-Bcl-xL binding to biotinylated Bak GD peptide on neutravidin wells, ELISA; settings: competing peptide added, ELISA signal
T1 construct: made in house; host or cells: E. coli
Description: An assay was developed to screen for compounds that block the interaction between the Bcl-2 homologs, Bcl-xL and Bak. A synthetic peptide corresponding to the Bak GD binding domain ([…] [SEQ ID NO: 35]) was biotinylated and bound to wells coated with neutravidin. […] Peptides encompassing the GD domain from various Bcl-2 family members were tested for their ability to block GD domain-mediated interactions in this assay. Peptides tested: Bcl-w [SEQ ID NO: 39] […] ([…]), Bak [SEQ ID NO: 36]([…]), Bak-15 [SEQ ID NO: 37] ([…]), Bak-15L78A [SEQ ID NO: 38] ([…]), control (no peptide).
In a modification of the high through-put screening assay 1 described herein, wells are coated with an avidin derivative, to which a biotinylated peptide/protein is bound. A GST-fusion protein that can interact with the biotinylated peptide/protein is added in the presence or absence of test compounds. The plates are incubated and then unbound GST-fusion protein is removed by washing. The amount of GST-fusion protein specifically bound to the tethered peptide/protein is determined by ELISA using an anti-GST antibody conjugated to horse radish peroxidase. Compounds which block the interaction between the biotinylated peptide/protein and the GST-fusion protein cause a decrease in the ELISA signal.
In a specific example, an assay was developed to screen for compounds that block the interaction between the Bcl-2 homologs, Bcl-xL and Bak. A biotinylated Bak GD domain peptide (amino acid residues 71-89; N-biotinylated […] [SEQ ID NO: 35]) was bound to wells coated with neutravidin. […] Using this assay, peptides from Bcl-2 family members were identified which block the Bcl-xL/Bak GD domain interaction (FIG. 10).

[2] = molecular target: Bcl-xL (Homo sapiens, UniProt Q07817); assay: In vitro protein binding assay, 35S labeled protein with GST-Bcl-xL on glutathione-agarose beads; set-up: made in house; host or cells: E. coli; settings: tested both in vitro and in transfected COS cells
Sequence of Bcl-xL (Q07817 whole entry): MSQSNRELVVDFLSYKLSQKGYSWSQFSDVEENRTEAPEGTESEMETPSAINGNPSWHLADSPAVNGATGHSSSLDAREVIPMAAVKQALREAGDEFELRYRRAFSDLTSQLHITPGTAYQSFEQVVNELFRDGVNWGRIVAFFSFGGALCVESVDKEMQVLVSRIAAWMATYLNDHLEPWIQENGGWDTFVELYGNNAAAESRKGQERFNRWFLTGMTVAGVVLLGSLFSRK
Description: A). Bak/Bcl-xL interactions measured in vitro. ^35S labeled in vitro translated Bak (lane 1) was mixed either with GST-Bcl-xL (lane 2) or GST (lane 3). The complexes were captured on glutathione-agarose beads, and bound ^35S labeled Bak protein was detected by electrophoresis on SDS polyacrylamide gels followed by autoradiography.
The beads were removed by centrifugation and the supernatants were incubated with GST or GST-Bcl-xL (final concentration […]) at 4° C. for 1 hour. The GST fusion proteins and any interacting proteins were recovered by incubation for 1 hour with an additional […] of GSH-agarose beads. The beads were washed twice with NP-40 lysis buffer followed by two washes with NP-40 lysis buffer without NP-40. Proteins were eluted from the beads by incubation in SDS-PAGE sample buffer at 100° C. for 5 min and loaded onto 4-20% SDS-polyacrylamide gels. Following electrophoresis, gels were fixed and incubated in a fluorography enhancing solution (Amplify; Amersham). The gels were dried and subjected to autoradiography at −70° C.

[3] = tested on: Rat-1 cells; assay: Transient transfection cell killing assay (loss of β-galactosidase-positive blue cells); type: cell-based; settings: for cell killing activity (reduction in number of blue β-gal expressing cells): Rat-1 cells co-transfected with β-galactosidase marker plasmid, 24 hours post transfection, relative to control vector
Description: The transient transfection assay procedure is similar to that previously described for detecting apoptosis induced by IL-1E-converting enzyme (Miura et al., Cell 75: 653-660 (1993); Kumar et al., Genes Dev. 8: 1613-1626 (1994); Wang et al., Cell 78: 739-750 (1994). One day prior to transfection, Rat-1 cells were plated in 24 well dishes at 3.5X10^4 cells/well. The following day, the cells were transfected with a marker plasmid encoding β-galactosidase (0.16 μg), in combination with an expression plasmid encoding Bak (0.42 μg), by the Lipofectamine procedure (Gibco/BRL). At 24 hours post transfection, cells were fixed and stained with X-Gal to detect J-galactosidase expression in cells that received plasmid DNA (Miura et al., supra). The number of blue cells was counted by microscopic examination and scored as either live (flat blue cells) or dead (round blue cells). The cell killing activity of Bak in this assay is manifested by a large reduction in the number of blue cells obtained relative to co-transfection of the β-gal plasmid with a control expression vector (i.e., with no bak cDNA insert).
The interpretation that loss of blue cells reflects the cell killing function of Bak is supported by a variety of observations: • 1. Rat-1 cells are rapidly killed by enforced Bak expression in stable transfection assays; • 2.
Enforced bak expression induces apoptosis in stable Rat-1 cell lines transfected with an inducible bak expression plasmid. In order to more rapidly assess the cell killing function of a large number of bak mutants, a transient transfection assay was employed. Rat-1 cells were transfected with a marker plasmid encoding β-galactosidase, in combination with an expression plasmid encoding Bak, or various control plasmids.

[4] = tested on: HeLa cells; assay: Microinjection assay, protection from anti-Fas and cycloheximide induced death; type: cell-based; settings: for effect on cell viability: HeLa cells, microinjected peptide, absence of anti-Fas treatment
Description: HeLa cells (>100 cells/condition) were microinjected without (buffer) or with GST-Bcl-xL (0.3 mg/ml) in the absence or presence of GD domain peptides (0.5 mg/ml) and the recovery of live injected cells was determined after treatment with anti-Fas and cycloheximide for 18 hours. FITC-dextran was coinjected as a marker. A 15-amino acid Bak GD domain peptide (Bak-15; residues 73-87; […] [SEQ ID NO: 37]) and a mutant Bak GD domain peptide with an alanine substitution at leucine 78 (Bak-15L78A; […] [SEQ ID NO: 38]) were tested.
A cell-based microinjection assay is provided for the identification of agents that antagonize GD domain-mediated interactions and inhibit the cell death suppression activity of Bcl-xL and/or Bcl-2. One or preferably more than one cells are microinjected with a death suppressor protein, such as Bcl-xL or Bcl-2, which protects the cells from induction of cell death by an apoptosis-inducing agent, in the presence of a test compound, composition or agent. Compounds that bind to the death suppressor protein and prevent its protective function, resulting in the death of the microinjected cells, can thereby be identified.
The ability of GD domain peptide variants to inhibit the function of Bcl-xL correlated with their ability to bind to Bcl-xL (see FIG. 10). […] Similar results were obtained with MRC5 human diploid fibroblasts where protection from anti-Fas-induced death by microinjected Bcl-xL was inhibited by co-injection of the wild-type, but not mutant, Bak BH3 peptide.
Microinjection procedure: HeLa cells were plated in complete DMEM in 60 mm dishes at 2.4×10^5 cells per dish. […] Following injection, the cells were returned to the incubator and after 1 hour the number of injected cells was determined by fluorescence microscopy. Cells were then treated with anti-Fas mAb (7C11) and cycloheximide ([…]) and the recovery of injected cells remaining after 18 hours was determined.

T1 sequence (Q07817 whole entry, the tested form may be a part): as the sequence (Q07817 whole entry) above

Molecule	Bcl-xL binding capacity [2]	cell killing activity (reduction in number of blue β-gal expressing cells) [3]	other results
AADPLHQAMRAAGDEFETRF [Bcl-w peptide]			inhibition of Bcl-xL/Bak GD domain binding [1]: did not block binding
Bax: Bcl-2 homolog and Bcl-2 interacting protein that induces apoptosis	interact specifically with Bcl-xL	eliminate blue cells	
Bcl-xL: long form of bcl-x product, suppresses apoptosis			restoration of number of blue cells on co-transfection with Bak ([3]; Rat-1 cells, co-transfection of Bak with Bcl-xL): partially restored
GSDALALRLACIGDEMDVSL [Bip1a peptide, peptide encompassing the GD domain from Bip1a]			inhibition of Bcl-xL/Bak GD domain binding [1]: concentration-dependent inhibition of binding
GST-Bcl-xL: bacterially-expressed GST fusion protein of the survival protein Bcl-xL			protection from death induced by Fas ligation ([4]; HeLa cells microinjected with 0.3 mg/ml protein, anti-Fas and cycloheximide 18 hours): efficiently protected HeLa cells from death
PEM: truncated Bak protein derivative corresponding to amino acids 58-103 (PEMVTLPLQPSSTMGQVGRQLAIIGDDINRRYDSEFQTMLQHLQPT; not fully specified)	bound Bcl-xL		
QVG: truncated Bak protein derivative corresponding to amino acids 73-123 (QVGRQLAIIGDDINRRYDSEFQTMLQHLQPTAENAYEYFTKIATSLFESGI; not fully specified)	bound Bcl-xL	significantly reduced the number of blue cells	
QVGRQAAIIGDDINR [Bak-15L78A]			effect on cell viability [4]: neither peptide had an effect on cell viability
QVGRQLAIIGDDINR [Bak-15]			effect on cell viability [4]: neither peptide had an effect on cell viability
STKKLSECLKRIGDELDSNH [Bax peptide, peptide encompassing the GD domain from Bax]			inhibition of Bcl-xL/Bak GD domain binding [1]: concentration-dependent inhibition of binding
Bax ΔGD: Bax mutant with small deletion removing the conserved GD domain motif (protein) MDGSGEQPRGGGPTSSEQIMKTGALLLQGFIQDRAGRMGGEAPELALDPVPQDASTKKMELQRMIAAVDTDSPREVFFRVAADMFSDGNFNWGRVVALFYFASKLVLKALCTKVPELIRTIMGWTLDFLRERLLGWIQDQGGWDGLLSYFGTPTWQTVTIFVAGVLTASLTIWKKMG	no longer have the capacity to interact with Bcl-xL	impaired in their ability to eliminate blue cells	
Bip1a: Bcl-2 interacting protein that induces apoptosis, lacks BH1 and BH2 (protein) MSEVRPLSRDILMETLLYEQLLEPPTMEVLGMTDSEEDLDPMEDFDSLECMEGSDALALRLACIGDEMDVSLRAPRLAQLSEVAMHSLGLAFIYDQTEDIRDVLRSFMDGFTTLKENIMRFWRSPNPGSWVSCEQVLLALLLLLALLLPLLSGGLHLLLK	interact specifically with Bcl-xL	eliminate blue cells	
Bip1a ΔGD: Bip1a mutant with small deletion removing the conserved GD domain motif (protein) MSEVRPLSRDILMETLLYEQLLEPPTMEVLGMTDSEEDLDPMEDFDSLECMEGSDALRAPRLAQLSEVAMHSLGLAFIYDQTEDIRDVLRSFMDGFTTLKENIMRFWRSPNPGSWVSCEQVLLALLLLLALLLPLLSGGLHLLLK	no longer have the capacity to interact with Bcl-xL	impaired in their ability to eliminate blue cells	

Reference: patent US7358088B2, “Peptides and compositions which modulate apoptosis” (ImmunoGen, Inc., priority 1995, dated 2008)
